Test: soluble on expression in E. coli; label from the status in PepcDB or PDB records

Sequence	soluble on expression in E. coli
MAEREQSNDSARTDVPAIVSLRTRELDTGEGRMQWASTLERLYCETDVAWPEPRRHFDAEWGGRPFGDLHVSTIRADAHTVVRSPAMIQSDSGEGYLVCLVTDGSVEVRQSGRATVVEPGSFALLDCAAPFVFHSPAPFRQVVVRSPREVLTSRLPGRIVEHGTARSIHGDTGAGGLVGRLFVDIADMDAPMSQGAAVSFASSAVDMLATALTEGLLATSAADLHRTEDLRRVQRVIEQNLHDADITLSDIAAAAGMSLRTVHKLFNAEGTTTRAWLYQARLEAARKYLLTTDLSVADVSECAGFRDVSHFSRLFRSTFGSSPGLYRKEHARRVS	not soluble
MATKKDVHDLFLNHVNSNAVKTRKMMGEYIIYYDSVVIGGLYDNRLLVKATKSVRHQLQDNTLVSPYPGAKEMILIPDITEAINLTNLFELIKNDLKN	not soluble
MRSLADFEFNKAPLCEGMILACEAIRRDFPSQDVYDELERLVSLAKEEISQLLPLEEQLEKLIALFYGDWGFKASRGVYRLSDALWLDQVLKNRQGSAVSLGAVLLWVANRLDLPLLPVIFPTQLILRIECPDGEIWLINPFNGESLSEHMLDGWLKGNISPSAELFYEDLDEADNIEVIRKLLDTLKASLMEENQMELALRTSEALLQFNPEDPYEIRDRGLIYAQLDCEHVALNDLSYFVERCPEDPISEMIRAQINNIAHKHIVLHMAGDPLEHHHHHH	soluble
MFTAKCAMQNIRNVAIVGSGQMGSGIAQVTASSGFNVMLADVNKKALDRAMKAISQSVTHLSKKQKGTDKEKSDFVTLTMSRIKTCNNVSTAVADADLIIEAAIENIDLKRGIFAQIEQSCKKDSILTTNTSSFLLEDVAKGLQDKTRFGGLHFFNPVPVMKLLEVIRSDDTSDETYATLIKFGTAVGKTTVACKDSPGFIVNRLLIPYFFEAARMYERGDASMTDIDEAMKLGAGHPMGPFELADYIGLDTVKFVMDGWAAKYPEVQLFEASPLVDKLVAEGKLGRKTGDGFYSYKK	not soluble
MSLTAERQERLLARVEDAFGVISVYEVDDYRFLEFGDAIEQSCVFTADPSWLEYDYTRAMLVGALCHESPESALFLGLGAGTLTQACMKFLPLEDIEAIELRPDVPRLAMDYLGLDDDPRLYVRIGDALELLPTAEKADLLFVDLYTDHGPGVGHLAWNFLENCQQHLNPGGWLVINQWATDDGRPLGAALLRGLYHRHYWELPVKEGNVILLVPADLEQSLDLDGLRARAEALAPRLGYSLDGLIREIRPATEGHHHHHH	soluble
MIGGRDDYPESGFSLPFEPGPRRMQIKRGIRILGIDDSPFSRGDRESNLVGVLMRMDGYVEMMEKEKIQVDGDDVNRAIENLFLYTGRVARIIMMSGISFAGFNICDIDALYQRIRVPVISVFEQGGSVERMIAAIEKHLDDPEKVRILRSLKPVEIRNNGYIIMANLSGIDAQSAQEIITRNTIRGKFPEAIRLADLVGKILGR	not soluble
MGSDKIHHHHHHMLKELHLQQVGPAAHFDVAFADRLNIFTGDNGLGKSFLLDIAWWVMTTNWAEQPAYPQRVKGENPQITAVVSNKKNIREYQSQFDFSEQQWRNLQMPPLLKEVVIYVRVDGSFSIFDPARQRDIAYNFNPNTLWNGLKSKDKVICNGLIQDWVTWQNQPNKYPFELFSNVIKKLAPHPSEWIEVGETTRVSIEDVRDIPTVNLPYGNVPVTQTSAGMKRILGLAYLLVWTWYEHKKASELRQQKPVNQIVLLIDEIESHLHPRWQRVILPAILSVVTELQPRMKIQALVTTHSPLILASLEPNFHEQEDKLFLFKLQDSEVSLDEVPWSKQGDIVGWLTSDIFGLKQARSKEAEIAIEAAEAWMRDDDMNTFPENLRISTQIHQELQRVLPGHDPFWPRWIVTTEKRNSGLSGV	not soluble
MAHHHHHHMVTFRCDCLHNEAEGALCRWKGKWHPANCTNTPVLLIGKGQPQGYFKLKLKVYAIFHGNGHRLHTLNCTDEDSSEDSLNATTCSDSDWRSITQQVPTEETVEQSAASEQGPSDTTKGSGSDDEETASSAPKSEGEEQEASGEGEETPKEDQQSPGEKRGTAGEKRGASGKKDGAGGEGLTRKEPEKGGATQGGKHTHPRGESSPEKGTVNDHQRDAAEDGTTTNGKQDADPGREEPVRGRDDTVAAGAGIVSNTGRIDRKPENKKGNNVRYGAIQNLLVAIVCFITG	not soluble
MGSDKIHHHHHHMTATTATAPTMRGGGRNELPPHLDDNLLTPRFYTTEFDKAAKTDLDIARKDFEAMFKEMEADYNLKHFDRKASLERLSELSPEDKAIYESYLVRSVVSEFSGFLLFKEISNRFKKAGRQELGQFFTFLARDEARHAGFLGRALKAEGINVDLPNLGNKRAATFFPLSWVLYSLYLSEKIGYWRYILINRHLNDNPEKVCAPLFDFFEPWCQDENRHGDCINLMMRCWPGMTKGFRGKLLSRFFLWSVFLTHTLTVCERGDFYGLLGIDPVLFDEEVIIQTNNTSRNAFPWVYNFDDGKFLEMRVQILKAFRNWRESSGLAKPVALSKFVSLILRQFALPMQKTNAVRYG	not soluble
SNAMKKKDMNKQVKIQDAVAAIILAEGPAGVSTTKVAKRVGIAQSNVYLYFKNKQALIDSVYARETNRILSTTDLDRLSDSTIDVTTRIRLYVQQVYDYSLANPDSLTIIQQIKALNGQGMTISAADADPNNIVANLLTAAIDAKVIKQLPVSLHMGVVFSTIHTHTTNISKGRYAQDQYTFGDIFQMIWDAMKQD	soluble
MVLDIDMFRTEKGGNPEIIRKSQQDRFKDPKLVDEVIELDEKWRKERFVADQLNRQKNAISKAIGEKMKKKEPQGTDDSVADDIVARLAELKIDELSQLTVVQLKKLRVLVDEKSVQTAAAVIANENARHEKLIQIGNLIHSSVVVSKDEANNKIERTFGDLSTKKKYSHVDLVVMVDGFDGERGTVVAGGRGYFLKGPLVFLEQAIIQLALQRLNVKGYVPLYTPFFMRKEVMQEVAQLSQFDDELYKVSSKGSEIAGDTSVDEKYLIATSEQPIAAYHRNEWIKETELPIKYAGVSTCFRQEVGSHGRDTRGIFRVHQFEKIEQFVLCSPNDNESWTLFDEMIGNAESYYQELQIPYQVVNIVSGELNNAAAKKFDLEAWFPGSGAYRELVSCSNCLDYQSRRLKVRYGQTKKLSGEVPFVHMLNATMCATTRVICAILENNQTEEGINVPTAIQQWMPENYRTFIPFVKPAPIDEDAKKATGKK	not soluble
MNTLGLYQSDWSKAPPHAHAYHVKTTREQGHYHLIEGFTQPANGSNTDQHTHYYTGITSFENGHFHRYYGISGPAIPLADGTHYHEIEETTYLAYNEPIEIQYGGVVYDPGDDRRKTHRHTLKGKTREIVGNEPLGR	soluble
MSFFDKVKGAINSGRDELTRQVGRFKNKKFMQGTVAVCARIAVSSDGVSSEEKQKMMGFLRSSEELKVFDTNEVIEFFNKLVSSFDFDVEIGKGETMKYILALKDQPEAAQLALRVGIAVAKSDGNFDQDEKLASREIAIALGFDPAEFGL	not soluble
MPLSYSSPSSSEERSDDPSKYDGDFGVPQICFCGKQLELVERLIGDQKKTFLKCPMSGQDDNYHVDKGWDLAVHEQCFCIDKRFGEHRELIQNAFKFGGDSNRLQINQIHAEIEDLKHRLDKKDAEIARLMDALGKK	not soluble
MSLSPNDHCFSSHTETGPRKRNEDFSVYIDDLNSLLTCHHGRISVFGVFDGHMGTSASDYCSFKIFNYLVSNPHFPENIQIALKESFKQVNKGFLTIADVLHINAGTTAGVCVIDDKKITTANIGDTEIMFCKRNHKPLILSNKHSPNNEIEKQRIELAGGKVFYFHGWRVEGLLGVSRSIGDIALKKFVIDEADTNQIERSPDDEFVLIGCDGLWNVISYDFCADMVREYLYTNNYNGVDENGIKKPINKKDIARYLVDLALFKQSLDNVTVSIYFFSKEGHHHHHH	soluble
SKILVFGHQNPDSDAIGSSMAYAYLKRQLGVDAQAVALGNPNEETAFVLDYFGIQAPPVVKSAQAEGAKQVILTDHNEFQQSIADIREVEVVEVVDHHRVANFETANPLYMRLEPVGSASSIVYRLYKENGVAIPKEIAGVMLSGLISDTLLLKSPTTHASDPAVAEDLAKIAGVDLQEYGLAMLKAGTNLASKTAAQLVDIDAKTFELNGSQVRVAQVNTVDINEVLERQNEIEEAIKASQAANGYSDFVLMITDILNSNSEILALGNNTDKVEAAFNFTLKNNHAFLAGAVSRKKQVVPQLTESFNG	soluble
MGIHFVDKADLWKSALLFNLKLRDRFRIAVDDHRGRATDLTAEEESALFRMLQTVAVPLIGNACHVFMNGFNRVQVYGLEKLHDALLNRPKNKPLVTVSNHVASVDDPFVIASLLPPKFLLDARNLRWTLCATDRCFKNPVTSAFSRSVKVLPISRGEGIYQQGMDIAISKLNNGGWVHIFPEGSRSRDGGKTMGSAKRGIGRLILDADTLPMVVPFVHTGMQDIMPVGASVPRIGKTVTVIIGDPIHFNDILSTEGAQHVSRKHLYDAVSSRIGQRLYDLKAQVDRVYIEQQSMMSHNAKTPSDRAAEIFHRVDWDSFGMGAQFSEESSPSSKPIGQSDDRIVRSPKRRVSPEGGVSLKIKKLMDSTEMMGFAARGLLMNEYKSRVESANVGRPLKAWREYFMNRGL	soluble
MKDVSKNQEENISDTALTNELIHLLGHSRHDWMNKLQLIKGNLSLQKYDRVFEMIEEMVIDAKHESKLSNLKTPHLAFDFLTFNWKTHYMTLEYEVLGEIKDLSAYDQKLAKLMRKLFHLFDQAVSRESENHLTVSLQTDHPDRQLILYLDFHGAFADPSAFDDIRQNGYEDVDIMRFEITSHECLIEIGLD	soluble
MAKVYYEKDVTVNVLKEKKVAIIGYGSQGHAHAQNLRDNGFDVVVGLRKGKSWDKAKEDGFSVYTVAEAAKQADVVMILLPDELQPEVYEEEIAPNLQAGNSLVFAHGFNVHFDQVKPPVNVDVFLVAPKGPGHLVRRTFSEGGAVPALFAVYQDATGVATEKALSYADGIGATRAGVLETTFKEETETDLFGEQAVLCGGVTALVKAGFETLVDAGYQPELAYFECLHELKLIVDLMYEGGLENMRYSVSDTAQWGDFVSGPRVVTEDTKKAMGTVLAEIQDGTFARGWIAEHKAGKPNFYATNEKENEHEIEVVGRKLRGMMPFVQPRVKAGVK	not soluble
MRGSHHHHHHGSACMFSNKTRQDSIQKMQQEELDLLIIGGGITGAGVAVQAAASGIKTGLIEMQDFAEGTSSRSTKLVHGGIRYLKTFDVEVVADTVGERAVVQGIAPHIPKPDPMLLPIYEDEGATTFNMFSVKVAMDLYDKLANVTGTKYENYTLTPEEVLEREPFLKKEGLKGAGVYLDFRNNDARLVIDNIKKAAEDGAYLVSKMKAVGFLYEGDQIVGVKARDLLTDEVIEIKAKLVINTSGPWVDKVRNLNFTRPVSPKMRPTKGIHLVVDAKKLPVPQPTYFDTGKQDGRMVFAIPRENKTYFGTTDTDYQGDFTDPKVTQEDVDYLLDVINHRYPEANITLADIEASWAGLRPLLIGNSGSPSTISRGSSLEREPDGLLTLSGGKITDYRKMAEGALRLIRQLLKEEYGIETKEIDSKKYQISGGNFDPTKLEETVTELAKEGVAAGLEEEDATYIADFYGTNARRIFELAKEMAPYPGLSLAESARLRYGLEEEMVLAPGDYLIRRTNHLLFERDQLDEIKQPVIDAIAEYFGWTEEEKAQQTKRLEALIAESDLRELKGEK	soluble
MFNGEKVTLLEMLDAREQRAATQKELLETAPEASLLSATMNIPGEVKNSPTLTAVFLEVIDEVEQQLLDQVPIVNFYRNEKTGPEYYLAVSLAPQELKQRMVKIEETHPYGRLVDLDVLWGNEELKSLHRGDLGLPPRRCFICQEVAKVCGRNRRHSLEAMQEKITEIILTRKEQPSE	not soluble

— the DeepSol protein solubility set
